Square brackets hold non-standard residues; d marks the D form. Ends that are not written are not given here. * marks the point of attachment. Biotin = O=C1N[C@H]2[C@H](CS[C@H]2CCCCC(=O)*)N1; Oct = octanoic acid spacer; oct = octanoic acid spacer; StBu = CC(C)(C)S*
Legend:
[1] = biological target: AKT1 (Homo sapiens, UniProt P31749); experiment: KD of synbody variants (Tables 2 and 4); format: binding; set-up: key to KD (nM): n.b. = no binding
Protocol: Selection of screening of amino acid variants has been described above. Variants including modifications of conjugation chemistry, linker, spacers or adjunct moieties can be screened for retention of binding to AKT1. In some methods, either the AKT1 or the synbody is immobilized. Optionally binding of a variant is tested in competition with the lead AKT1 synbody discussed above. In one format, AKT1 is immobilized to a support and synbody variants are tested for binding by surface plasmon resonance.
The following synbodies have the same peptides as the lead synbody and are synthesized off of a lysine core but include the addition of different functional groups synthesized between the C-terminus of the peptide and the amine groups of the lysine scaffold (Table 2). Synbodies were conjugated with either a C-terminal cysteine protected against disulfide formation using a sulfo-tert-butyl group, or with different biotin-conjugated lysines where the spacer between the lysine and the backbone varied. For example, in synbody 5 the biotin was attached to the amino group of the side chain, synbody 6 used a caproic acid spacer, while synbody 7 used an eleven-unit polyethylene glycol spacer.
The following mutant forms of the lead peptide have been made in which either one or more amino acids are substituted or the orientation of the peptides on the linker is reversed (Table 4).

[2] = biological target: AKT2 (Homo sapiens, UniProt P31751); experiment: Immunoprecipitation of purified AKT2 from cell lysate with synbody (Western blot); format: binding; conditions: immunoprecipitate of purified 250 ng AKT2 from 500 mg of cell lysate
Protocol: (§1) The synbody was tested for binding to AKT1 and in some experiments, AKT2 and AKT3.

[3] = biological target: AKT3 (Homo sapiens, UniProt Q9Y243); experiment: Immunoprecipitation of purified AKT3 from cell lysate with synbody (Western blot); format: binding; conditions: immunoprecipitate of purified 250 ng AKT3 from 500 mg of cell lysate
Protocol: as §1

[4] = biological target: T1, AKT1 (human, UniProt P31749 1-480); experiment: method not stated (Table 2)
T1 construct: also called human AKT1; AKT1_HUMAN

[5] = biological target: T1, AKT1; experiment: SPR, synbody at 12.5 and 6.25 nM injected over immobilized AKT1, 1:1 kinetic fit
Protocol: as §1

[6] = biological target: AKT2 (human, UniProt P31751 1-481); experiment: immunoprecipitation of 250 ng purified AKT2 from cell lysate with the synbody, Western blot
Protocol: as §1

[7] = biological target: AKT3 (human, UniProt Q9Y243 1-479, limits assumed); experiment: immunoprecipitation of 250 ng purified AKT3 from cell lysate with the synbody, Western blot
Protocol: as §1

[8] = biological target: T1, AKT1; experiment: SPR, 12.5 and 6.25 nM synbody injected over AKT1 surface, 1:1 kinetic fit; SPR, synbody injected over AKT1 surface, 1:1 kinetic fit
Protocol: as §1

[9] = biological target: T1, AKT1; experiment: pull-down of S35-labeled AKT1 with synbody immobilized via biotin on magnetic beads, 1:1 fit; pull-down of S35-labeled AKT1, synbody on magnetic bead via biotin
Protocol: as §1

[10] = biological target: T1, AKT1; experiment: method not stated (Table 4)
[11] = Table 2, synbodies constructed from a lysine scaffold

Chain of AKT1 (Homo sapiens, UniProt P31749) (P31749 whole entry): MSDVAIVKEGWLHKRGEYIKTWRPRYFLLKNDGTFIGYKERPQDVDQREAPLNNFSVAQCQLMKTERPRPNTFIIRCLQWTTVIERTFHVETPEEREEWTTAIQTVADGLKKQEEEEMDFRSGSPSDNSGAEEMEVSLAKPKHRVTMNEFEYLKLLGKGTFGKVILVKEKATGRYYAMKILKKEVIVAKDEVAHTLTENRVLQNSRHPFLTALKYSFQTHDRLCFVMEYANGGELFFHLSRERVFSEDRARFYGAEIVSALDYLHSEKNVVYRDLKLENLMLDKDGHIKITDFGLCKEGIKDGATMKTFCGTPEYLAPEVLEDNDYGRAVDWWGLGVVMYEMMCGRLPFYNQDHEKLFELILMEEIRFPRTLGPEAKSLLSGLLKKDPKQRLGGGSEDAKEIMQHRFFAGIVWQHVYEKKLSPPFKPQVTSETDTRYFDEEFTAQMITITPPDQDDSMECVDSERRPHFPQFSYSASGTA
T1 sequence (P31749 whole entry): as above
Chain of AKT3 (Homo sapiens, UniProt Q9Y243) (Q9Y243 whole entry): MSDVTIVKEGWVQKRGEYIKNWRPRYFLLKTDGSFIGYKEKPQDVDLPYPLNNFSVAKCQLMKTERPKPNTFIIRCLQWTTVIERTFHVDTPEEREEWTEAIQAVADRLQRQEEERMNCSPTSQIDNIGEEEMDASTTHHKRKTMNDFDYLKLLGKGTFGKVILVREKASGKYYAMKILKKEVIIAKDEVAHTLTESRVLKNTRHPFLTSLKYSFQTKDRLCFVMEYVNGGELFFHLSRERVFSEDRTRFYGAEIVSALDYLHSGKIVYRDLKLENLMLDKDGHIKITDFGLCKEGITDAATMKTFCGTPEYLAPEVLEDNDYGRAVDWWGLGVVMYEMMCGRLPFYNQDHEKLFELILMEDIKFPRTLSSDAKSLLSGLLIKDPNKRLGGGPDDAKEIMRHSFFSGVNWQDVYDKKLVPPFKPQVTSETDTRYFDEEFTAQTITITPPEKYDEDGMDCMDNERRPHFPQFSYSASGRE
Chain of AKT3 (human, UniProt Q9Y243 1-479, limits assumed) (Q9Y243 whole entry): as above
Chain of AKT2 (Homo sapiens, UniProt P31751) (P31751 whole entry): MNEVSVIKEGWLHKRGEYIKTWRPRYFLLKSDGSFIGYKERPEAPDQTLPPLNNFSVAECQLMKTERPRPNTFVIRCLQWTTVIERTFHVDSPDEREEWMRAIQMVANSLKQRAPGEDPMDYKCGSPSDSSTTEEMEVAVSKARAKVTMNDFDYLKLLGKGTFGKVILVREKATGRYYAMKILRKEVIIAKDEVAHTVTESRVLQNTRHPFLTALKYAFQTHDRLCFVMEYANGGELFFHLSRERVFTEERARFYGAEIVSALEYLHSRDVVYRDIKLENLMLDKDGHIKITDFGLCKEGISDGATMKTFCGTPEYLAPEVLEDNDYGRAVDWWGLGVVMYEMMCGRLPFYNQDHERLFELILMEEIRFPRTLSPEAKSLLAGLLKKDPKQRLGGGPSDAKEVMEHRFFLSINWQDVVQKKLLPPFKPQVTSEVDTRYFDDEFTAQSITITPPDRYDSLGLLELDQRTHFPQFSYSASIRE
Chain of AKT2 (human, UniProt P31751 1-481) (P31751 whole entry): as above

AHKVVPQRQIRHAYNRYGSGKCFRGWAHIFFGPHVIYRGGSG(oct) (AHKVVPQRQIRHAYNRYGSGKCFRGWAHIFFGPHVIYRGGSG-oct; not fully specified; printed as AHKVVPQRQIRHAYNRYGSGKCFRGWAHIFFGPHVIYRGGSG(oct); also: branched on Lys21 side chain (linear writing)) [Akt26-23(Oct)KC]
KD (nM) [1, 11]: n.b.

AWKVVPQRQIRHAYNRYGSGKCFRGWAHIFFGPHVIYRGGSG [m3-Akt26-23 KC]
KD (nM) ([1]; Table 4, synbodies constructed from mutant peptides on lysine scaffold): n.b.

CC[C@H](C)[C@H](NC(=O)[C@H](Cc1c[nH]cn1)NC(=O)[C@H](C)NC(=O)[C@H](Cc1c[nH]c2ccccc12)NC(=O)CNC(=O)[C@H](CCCNC(=N)N)NC(=O)[C@@H](N)Cc1ccccc1)C(=O)N[C@@H](Cc1ccccc1)C(=O)N[C@@H](Cc1ccccc1)C(=O)NCC(=O)N1CCC[C@H]1C(=O)N[C@@H](Cc1c[nH]cn1)C(=O)N[C@H](C(=O)N[C@H](C(=O)N[C@@H](Cc1ccc(O)cc1)C(=O)N[C@@H](CCCNC(=N)N)C(=O)NCC(=O)NCC(=O)N[C@@H](CO)C(=O)NCC(=O)NCCCC[C@H](NC(=O)CNC(=O)[C@H](CO)NC(=O)CNC(=O)[C@H](Cc1ccc(O)cc1)NC(=O)[C@H](CCCNC(=N)N)NC(=O)[C@H](CC(N)=O)NC(=O)[C@H](Cc1ccc(O)cc1)NC(=O)[C@H](C)NC(=O)[C@H](Cc1c[nH]cn1)NC(=O)[C@H](CCCNC(=N)N)NC(=O)[C@@H](NC(=O)[C@H](CCC(N)=O)NC(=O)[C@H](CCCNC(=N)N)NC(=O)[C@H](CCC(N)=O)NC(=O)[C@@H]1CCCN1C(=O)[C@@H](NC(=O)[C@@H](NC(=O)[C@H](CCCCN)NC(=O)[C@H](Cc1c[nH]cn1)NC(=O)[C@H](C)N)C(C)C)C(C)C)[C@@H](C)CC)C(=O)N[C@@H](CCCCNC(=O)CCCC[C@@H]1SC[C@@H]2NC(=O)N[C@@H]21)C(N)=O)[C@@H](C)CC)C(C)C [lead synbody]
cross-reactivity with AKT2 [2]: little cross-reactivity | cross-reactivity with AKT3 [3]: little cross-reactivity

CC[C@H](C)[C@H](NC(=O)[C@H](Cc1c[nH]cn1)NC(=O)[C@H](C)NC(=O)[C@H](Cc1c[nH]c2ccccc12)NC(=O)CNC(=O)[C@H](CCCNC(=N)N)NC(=O)[C@@H](N)Cc1ccccc1)C(=O)N[C@@H](Cc1ccccc1)C(=O)N[C@@H](Cc1ccccc1)C(=O)NCC(=O)N1CCC[C@H]1C(=O)N[C@@H](Cc1c[nH]cn1)C(=O)N[C@H](C(=O)N[C@H](C(=O)N[C@@H](Cc1ccc(O)cc1)C(=O)N[C@@H](CCCNC(=N)N)C(=O)NCC(=O)NCC(=O)N[C@@H](CO)C(=O)NCC(=O)NCCCC[C@H](NC(=O)CNC(=O)[C@H](CO)NC(=O)CNC(=O)[C@H](Cc1ccc(O)cc1)NC(=O)[C@H](CCCNC(=N)N)NC(=O)[C@H](CC(N)=O)NC(=O)[C@H](Cc1ccc(O)cc1)NC(=O)[C@H](C)NC(=O)[C@H](Cc1c[nH]cn1)NC(=O)[C@H](CCCNC(=N)N)NC(=O)[C@@H](NC(=O)[C@H](CCC(N)=O)NC(=O)[C@H](CCCNC(=N)N)NC(=O)[C@H](CCC(N)=O)NC(=O)[C@@H]1CCCN1C(=O)[C@@H](NC(=O)[C@@H](NC(=O)[C@H](CCCCN)NC(=O)[C@H](Cc1c[nH]cn1)NC(=O)[C@H](C)N)C(C)C)C(C)C)[C@@H](C)CC)C(=O)N[C@@H](CSSC(C)(C)C)C(N)=O)[C@@H](C)CC)C(C)C [Akt26-23KC]
Kd [1, 11]: 4 nM

AHKVVPQRQIRHAYNRYGSG(oct)KCFRGWAHIFFGPHVIYRGGSG(oct) (AHKVVPQRQIRHAYNRYGSG[oct]KCFRGWAHIFFGPHVIYRGGSG-oct; not fully specified; printed as AHKVVPQRQIRHAYNRYGSG(oct)KCFRGWAHIFFGPHVIYRGGSG(oct); numbers in words are those of the source; also: branched on Lys21 side chain (linear writing)) [Akt26-(Oct)-23(Oct)KC]
KD (nM) [1, 11]: n.b.

B1: Akt26-23KKbiotin (designed binder)
chain 1: AHKVVPQRQIRHAYNRYGSGKK(Biotin)
chain 2: FRGWAHIFFGPHVIYRGGSG
modifications: also: bond at chain A 21 to a chain's C-terminus
notes: I split it into two chains; The name runs over rows r11 and r12; also called synbody 5
Kd [4]: 4 nM

B2: lead synbody (Akt26 and Akt23 on a lysine linker, second lysine with biotin) (designed binder)
chain 1: AHKVVPQRQIRHAYNRYGSGKK
chain 2: FRGWAHIFFGPHVIYRGGSG
modifications: not fully specified (some residues); also: bond at chain A 21 to a chain's C-terminus
notes: also called the synbody; first generation synbody
koff [5]: 0.000295 s⁻¹ | binding result [6]: binds | binding result [7]: binds | Kd [8]: 1.49 nM | Kd [9]: 4.9 nM

B3: m1-Akt26-23 KC (designed binder)
chain 1: AHKVVPQRQMRHAYSRYGSGKC
chain 2: FRGWAHIFFGPHVIYRGGSG
modifications: also: bond at chain A 21 to a chain's C-terminus
notes: Mutant peptide on a lysine scaffold
Kd [10]: 15 nM

B4: m2-Akt26-23 KC (designed binder)
chain 1: AHKVVYQRQIRFAYNRYGSGKC
chain 2: FRGWAHIFFGPHVIYRGGSG
modifications: also: bond at chain A 21 to a chain's C-terminus
notes: Mutant peptide on a lysine scaffold; Branched molecule, which I split into two chains
Kd [10]: 5 nM

B5: m4-Akt26-23 KC (designed binder)
chain 1: AHKVVPQRWIRHAYNRYGSGKC
chain 2: FRGWAHIFFGPHVIYRGGSG
modifications: also: bond at chain A 21 to a chain's C-terminus
notes: as for B4
Kd [10]: 5 nM

B6: m5-Akt26-23 KC (designed binder)
chain 1: AWKVVPQRWIRHAYNRYGSGKC
chain 2: FRGWAHIFFGPHVIYRGGSG
modifications: also: bond at chain A 21 to a chain's C-terminus
notes: as for B4
Kd [10]: 8 nM

B7: m6-Akt26-23 KC (designed binder)
chain 1: AWKVVPQRWIRYAYNRYGSGKC
chain 2: FRGWAHIFFGPHVIYRGGSG
modifications: also: bond at chain A 21 to a chain's C-terminus
notes: as for B4
Kd [10]: ~10 nM

B8: Akt26-23(hex)KC (designed binder)
chain 1: AHKVVPQRQIRHAYNRYGSGKC(StBu)
chain 2: FRGWAHIFFGPHVIYRGGSG
modifications: not fully specified (C-terminus); also: linker at chain A 21 to a chain's C-terminus via hex
notes: Branched molecule
Kd [4]: 3 nM

B9: Akt26(Oct)-23KC (designed binder)
chain 1: AHKVVPQRQIRHAYNRYGSG[Oct]KC(StBu)
chain 2: FRGWAHIFFGPHVIYRGGSG
modifications: numbers in words are those of the source; also: bond at chain A 21 to a chain's C-terminus
notes: Branched molecule; They shift if the listing holds a placeholder for the spacer
Kd [4]: 6 nM
